Measured values reported in the nanobody polyreactivity screen of Harvey et al. (2022).

Experiment: yeast display, Sf9 membrane polyspecificity reagent, FACS + sequencing; frameworks hold sequencing errors
How it was run: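 Galactose induction of a Saccharomyces cerevisiae BJ5465 synthetic nanobody display library ran 36–48 hours. The cells were then stained for 1 hour at 4 °C with 10% biotinylated, detergent-solubilized Sf9 membrane reagent, pulled down on streptavidin microbeads and FACS-sorted into low and high (top ~1%) gates on expression and reagent-binding fluorescence. Labels for polyreactivity follow the gate of origin.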

Row | Sequence | polyreactivity (PSR sort gate)
1 | QVQLVESGGGLVQAGGSLRLICDASGRIFGDNAMGWYRQAPGKEREFVATINGSGGSTYYADSVKGRFTISRDNAKNTVYLQMNSLKPEVTAVYYCFVQQNYGYDYWGQGTQVTVSS | low polyreactivity
2 | QVQLVESGGGLVQAGGSLRLICDASGRTFTDNAMGLYRQAPGKERELVAAISSSGDFYAESVKGRFTISRDNAQNTVYLQMNSLKPEDTAVYYCAARVWRYYYQSRFYYWGQGTQVTVSS | high polyreactivity
3 | QVQLVESGGGLVQAGGSLRLICDASGRTFVRYAMGWYRQAPGKERELVAAITRSASTYYADSVKGRFTISRDNAKNTVYLQMNSLKPEDTAVYYCNAGRKYWFGRAGGYDYWGQGTQVTVSS | high polyreactivity
4 | QVQLVESGGGLVQAGGSLRLICDASGSIFGDYVMGWYSPAPGKERELVAAITSATSTYYADSVKGRFTISRDNAKNTVYLQMNSLKPEDTAVYYCKADATYPLWPNIWYDYDYWGQGTQVTVSS | low polyreactivity
5 | QVQLVESGGGLVQAGGSLRLICSASGSIIEHYAMGWYRQAPGKERELVAAISWCGASTYYADSVKGRFTISRDNAKNTVYLQWYSLKPEDTAVYYCAAVFYGGGKRYYYWGQGTQVTVSS | high polyreactivity
6 | QVQLVESGGGLVQAGGSLRLICSASGTTFPVYVMGRYRHAPGKERELVAAISRSGTSTYYADSVKGRFTISRDNAKNTVYLQMNSLKPEDTAVYYCAAQLYGHGEDYWGQGTQVTVSS | high polyreactivity
7 | QVQLVESGGGLVQAGGSLRLIFAASGFIFETYAMGWYRQAPGKERELVAAISRGASTYYADSVKGRFTISRDNAKNTVYLQMNSLKPEDTAVYDCAAKRLSWHRYGYWGQGTQVTVSS | low polyreactivity
8 | QVQLVESGGGLVQAGGSLRLISAASGIIFWGNAMGWYRQPPGNERELVATITGRGGSTYYADSVKGRFTISRDYAKNTVYLQMNSLKPEDTAVYYCAASGGRPILFYDVWGGIVRHEYWGQGTQVTVSS | low polyreactivity
9 | QVQLVESGGGLVQAGGSLRLISAASGINFTGYAMGWYRQAPGKERELVAAISYSAASTYYADSVKGRFTISRDTAKNTVYLQMNSLKPEDTAVYYCAATAPSRSYPFRYYYWGQGTQVTVSS | high polyreactivity
10 | QVQLVESGGGLVQAGGSLRLISAASGRTFYSNAMGWYRQAPGKERELVAAITKSGGRTYYADSVKGRFTISRDNAKNTDYLQMNSLIPEDTAVYYCKALVAAYYGYDYWGQGTQVTVSS | high polyreactivity
11 | QVQLVESGGGLVQAGGSLRLISAASGSIFPAYDMGLYRQAPGKEREFLPAIERGGSTYYADSVKGRYTISRDNAKNTVYLPMNSLKPVDTAVFYCATDCPEYPNYISSAGFDYWGQGTQVNVSS | low polyreactivity
12 | QVQLVESGGGLVQAGGSLRLISAASGSTFRHYALGWNRQAPGKERELVAAISSTGGSTYYADSVKGRFTISRDNAKNTVYLQMNSLKPEDTAVFYCAARRLYWGQGTQVTVSS | high polyreactivity
13 | QVQLVESGGGLVQAGGSLRLIWAASGFTFWLNAMGWYRQAPGKERELVAAINWSGGSTYYADSVKGRFTISRDNAKNTVYLLMNILKPEDTAVYYCNRRGQYTFWPIHEYWGQGTQVTVSS | high polyreactivity
14 | QVQLVESGGGLVQAGGSLRLKCAASGSTFRPYAMGWYRQAPGKERELVARITGSGDSTYYADSVKGRFTISRDNAKITVYLQINSLKPEDNAVYYCAREFDYSLSGFDYWGQGTQVTVSS | low polyreactivity
15 | QVQLVESGGGLVQAGGSLRLLCADSGFTFEYYAMGWYRQAPGKERELVAAITSGGSTNYADSVKGRFTISRDNAKNTVYVQMNSLKPEDTAVYYCAAGYWYRYAALRYDHWGQGTQVTVSS | low polyreactivity
16 | QVQLVESGGGLVQAGGSLRLRCAACGSIFTQYVMGWYRKAPGKERELVAAITWSGGNTYYADSVKGRFTISRDNAKNTVYLQMNSLKPEDTAVYYCAAYKPYSKYNDWGQGTQVTVSS | high polyreactivity
17 | QVQLVESGGGLVQAGGSLRLRCAASGFTFRLYAMGGDRQAPGKERELVATITQRGGRTYYADSVKGRFTISRDNAKNTVYLQMNSLKPEDTAVYYCAATWSLTTGTKFDYWGQGTQVTVSS | high polyreactivity
18 | QVQLVESGGGLVQAGGSLRLRCAASGFTFYLYAMGWYRQAPGKERELVAAITWSGGRTYYADSVKGRFTNSRDNAKNTVYLQMNSLKPEYTAVYYCAAVVRKQLSAPSDYWGQGTQVTVSS | high polyreactivity
19 | QVQLVESGGGLVQAGGSLRLRCAASGGTFYYYAMGWYRQAPGKERELVAAISTSGTSTYYADSVKGRFTISRDNAKNTVYLQMNSLKPEDTAVYDCAARGLRVSSRGYYWGQGTQVTVSS | high polyreactivity
20 | QVQLVESGGGLVQAGGSLRLRCAASGHIFGRYAMGWYRQAPGKERELVAAFTSGGTTYYADSVKGRFTISRDNAKNTVYLQMNSLKPEDTAVYYCAAKFQLKRYSSPFIWYDSWGQGTQVTVSS | high polyreactivity
21 | QVQLVESGGGLVQAGGSLRLRCAASGIIFGTNAMGWYRQAPGKERELVAGITSSGDSTYYADSVKGRFTISRDNAKNTVYLQMNSLKAEDTAVYYCARDIRTREFDSWGQGTQVTVSS | low polyreactivity
22 | QVQLVESGGGLVQAGGSLRLRCAASGISFRRNVMGWCRQAPGKERELVARISRAGSTKYADSVKGRFTISRDTAKNTVYLQMTSLKPEDTAVYYCNKVTRRNGQPYDYWGQGTQVTVSS | high polyreactivity

Row | Sequence | polyreactivity (PSR sort gate)
23 | QVQLVESGGGLVQAGGSLRLRCAASGMGWYRQAPGKEWEKVATITWSDGITYADSVKGRFTISRDNAKNTVYLQMNSLKPEDTAVYYCNADWDQTGTVFYSFGLREMDSWGQCTQVTVSS | low polyreactivity
24 | QVQLVESGGGLVQAGGSLRLRCAASGRIFPWYAMGWYRHAPGGEREFVAVISRSGGSTYYADSVKGRFTISRDNAKNTVYLQMNSLKPEDTAVYYCASDGKFEYDYWGQGTQVTVSS | low polyreactivity
25 | QVQLVESGGGLVQAGGSLRLRCAASGRIFRGYAMGWYRQAPGKERELVAAISWSGGSSTYADSVKGRFTISLDNAKNTVYLQMNSLKPEDTAVYDCNRVSRGRGRLTVDYQAEGYDSWGQGTQVTVSS | high polyreactivity
26 | QVQLVESGGGLVQAGGSLRLRCAASGRIFYFNAMGWYRQAPGKEREFVASINSIGDSTYYADSVKGRFTISRDTAKNTVYLQMNSLKPEDTAVYYCNADHGVINYRLDYWGQGTQVTVSS | low polyreactivity
27 | QVQLVESGGGLVQAGGSLRLRCAASGRILVRYAMGWYRQAPGKERELVAAISRGGSTTYADSVKGRFTISRDNAKNTVYLQMNSLKPEDTAVYYCAAGRYPYNRDYWGQGTQVTVSS | high polyreactivity
28 | QVQLVESGGGLVQAGGSLRLRCAASGRNIHWYAMGWSRQAPGKEMELVAAITGSGGRTSYADSVKGRFTISRDFAKNTVYLQMNSLKPQDTAVYYCAKRATWYTVPREGYWGQGTQVTVSS | high polyreactivity
29 | QVQLVESGGGLVQAGGSLRLRCAASGRTFGPYTMGWYRQAPGKEREFVAAINSSGSRTYYADSVKGRFTISRDNAKNTVYLQMNSLKPEDTAVYYCAAEAKWYYSWSYPYEGDYWGQGTQVTVSS | low polyreactivity
30 | QVQLVESGGGLVQAGGSLRLRCAASGRTFIVYAMGWYRQAPGKERELVARISSGSRTSYADSVKGRFTISRDNAKNTVYLQMNSLKPEDTAVYYCAKSRVIKYEFDYWGQGTEVTVSS | low polyreactivity
31 | QVQLVESGGGLVQAGGSLRLRCAASGRTIGPYAMGWYRQEPRKERELVAAISWSGGSTYYADSVKGRFTISRDNAKNTVYLQMNSLKPVDTAVYFCAAVYYSHVYYWGQGTQVTVSS | high polyreactivity
32 | QVQLVESGGGLVQAGGSLRLRCAASGRTVVGTTMGWYRQAPGKEREVVAAISSGGRTYYADSVKGRFTISRDNAKNTVYLQMNSLIPVDTAVYYCAARRRGKVVPTSQFDYWGQGTQVTVSS | high polyreactivity
33 | QVQLVESGGGLVQAGGSLRLRCAASGSIFFYYVMGLSRQAPGKERELVAVISSGGGSTYYADSVKGRFTISRDNAKYTVYLQMNSLKPEDTAVYYCAAGTYYKFYYWGQGTQVTESS | high polyreactivity
34 | QVQLVESGGGLVQAGGSLRLRCAASGSIFGAYAMAWYRQAPGKERELVAAINSDISTNYADSVKGRFTISRDNAKNTVYFQMTSVKPEDTAVYYCGVDWPRIYLRYNYWGQGTAVTVSS | low polyreactivity
35 | QVQLVESGGGLVQAGGSLRLRCAASGSIFNFYAMGGYRQAPGKERELVATINWSGGRTYYADSVKGRFTISRDNATNTVYLQMNSLNTEDTAVYYCAASRYFRGDYWGQGTQGTVSS | high polyreactivity
36 | QVQLVESGGGLVQAGGSLRLRCAASGSIFNSYAMGWYRQAPGKERELVAAISIRGTRTYYADSVKGRFTISRDNAKNTVYLQMNSLKPEDTAVYYCAADASYTEGMDYWGQGTQVTVSS | high polyreactivity
37 | QVQLVESGGGLVQAGGSLRLRCAASGSIFYGYAMGWYRQAPGKESEFVAAITTTGGSTYYADSVKGRFTISRDNSKYTVYLQMNSLKPEDTAVYYCATSGDRLVWGQVTQVTVSS | low polyreactivity
38 | QVQLVESGGGLVQAGGSLRLRCAASGSTFAWYAMGWYRQAPGKESELVAAITQNGGRTYYADSVKGRFTISRDNAKNTVYLQMNSLKPEDTAVYYCANAFIQPGYKYDSWGQVTQVTVSS | high polyreactivity
39 | QVQLVESGGGLVQAGGSLRLRCAASGSTFAYYAMGWYRQAPGKERELVAAISSGGSTYYADSVKGRFTISRDNAKNTVYIQMNSLKAEETAVYYCNKLRVVKFKRYEFGEWGQGTQVTVSS | low polyreactivity
40 | QVQLVESGGGLVQAGGSLRLRCAASGSTFVPYAMGWYRQAPWKERELVAAITWNGGRTYYADSVKGRYTISRDNANNTVYLQMNSLKPEDTAVYFCNGLSYTWACYYWGQGTRVTVSS | high polyreactivity
41 | QVQLVESGGGLVQAGGSLRLRCAASGSTFYRYALGWYRQAPGKERELVAVITSGGGTYSADSVKGRFSISRDNAKNTVYLQLNSRKPEDTAVYDCAARYLRTRNYQYDYWGQGTQVTVSS | high polyreactivity
42 | QVQLVESGGGLVQAGGSLRLRCAASGSTFYYYAMGWYRQAPGKERELVAANTLRGTSTYYADSVKGRFTISRDNAKNTVYLQMNRLKPEDTAVYYCAVETYYSIFDIYDYWGQGTQVTVSS | low polyreactivity
43 | QVQLVESGGGLVQAGGSLRLRCAASGSTLYIYAMGWYRQAPGKERELVAAITSSTGSTYADSVKGRFTISRDNAKNTVYLQMNSLKPEDTAVYYCNAGGPLQPYDYWGQGTQVTVSS | low polyreactivity
